Measurements reported in PMC11480844.

B1: H2-Kb / B3 (parent)
chain 1: GQQVKQSSPSLTVQEGGISILNCDYENDMFDYFAWYKKYPDNSPTLLISVRSNVDKREDGRLTVFLNKSGKHFSLHITASQPEDTAVYLCAAGNTGYQNFYFGKGTSLTVIP
chain 2: DSGVVQSPRHIIKEKGGRSVLTCIPISGHSNVVWYQQTLGKELKFLIQHYEKVERDKGFLPSRFSVQQFDDYHSEMNMSALELEDSAMYFCASSSLQGARNQAPLFGEGTRLSVL
chain 3: not shown
chain 4: IQKTPQIQVYSRHPPENGKPNILNCYVTQFHPPHIEIQMLKNGKKIPKVEMSDMSFSKDWSFYILAHTEFTPTETDTYACRVKHDSMAEPKTVYWDRDM
chain 5: SIINFEKL
B2: H2-Kb / E9 (parent)
chain 1: QQKVQQSPESLTVSEGAMASLNCTFSDRSSDNFRWYRQHSGKGLEVLVSIFSDGEKEEGSFTAHLNRASLHVFLHIREPQPSDSALYLCAVSRSSGSWQLIFGSGTQLTVMP
chain 2: NSGVVQSPRYIIKGKGERSILKCIPISGHLSVAWYQQTQGQELKFFIQHYDKMERDKGNLPSRFSVQQFDDYHSEMNMSALELEDSAVYFCASSRDSNNQAPLFGEGTRLSVL
chain 3: not shown
chain 4: B1 chain 4
chain 5: SIINFEKL

Variants of: B1
Experiment: % of reporter cells activated (NFAT-GFP), raw
Settings: with B3; scale: % of reporter cells activated
Note: test concentration or dose not given here.

Ratio to parent of substitutions, site by site:
chain 5 S1: F 0.18; L 0.118; W 0.138; K 0.356; H 0.259; Y 0.576; D 0.229; I 0.207; M 0.195; G 0.192; V 0.34; E 0.216; P 0.303; Q 0.266; N 0.0477; R 0.101; T 0.194

Variants of: B2
Experiment: % of reporter cells activated (NFAT-GFP), raw
Settings: with E9; scale: % of reporter cells activated

Ratio to parent, by site and new letter:
chain 5 I2: N 1.77; G 1.32; Q 1.77; S 1.46; F 1.02; K 1.2; Y 1.53; D 2.31; T 2.01; L 1.5; V 2.13; E 2.07; A 2.22; P 1.77; M 1.59; W 1.86; H 1.71; R 1.06; C 2.31
chain 5 E6: N 1.47; V 3.26; Y 2.84; M 1.86; G 1.74; P 2.1; R 2.34; D 1.68; H 1.47; I 2.63; T 2.1; F 1.68; W 2.07; K 1.98; S 2.46; C 0.862; L 1.35; A 2.25; Q 1.47
chain 5 F5: S 1.83; M 1.74; D 3.05; Q 1.32; P 2.51; Y 2.37; H 1.89; A 1.68; K 2.54; L 1.98; V 1.89; T 1.45; G 1.74; R 0.671; C 1.95; N 2.01; E 2.43; I 1.02; W 1.14
chain 5 K7: E 2.1; R 0.237; S 1.41; D 1.53; F 0.958; I 2.54; P 2.07; W 1.38; C 3.02; T 2.01; L 2.01; G 1.92; N 1.95; V 1.71; Q 2.28; M 1.02; A 0.686; Y 1.26; H 2.43
chain 5 L8: F 1.77; R 1.53; N 0.838; W 0.778; Q 0.898; G 1.25; K 1.14; T 0.623; C 2.78; E 1.26; A 0.868; S 0.886; H 1.92; V 0.302; Y 1.2; D 0.605; M 0.988; I 0.988; P 1.35
chain 5 I3: G 1.62; L 2.07; M 1.17; A 1.71; K 2.31; S 2.13; F 1.26; H 1.53; C 1.65; Y 2.43; E 1.86; D 1.41; P 1.68; T 1.68; N 0.778; W 1.74; V 1.23; R 1.89; Q 1.83
chain 5 N4: W 1.77; Y 1.15; F 1.38; M 1.71; G 1.35; L 2.31; D 1.11; R 1.59; H 2.63; I 1.92; T 1.47; A 2.22; P 2.07; V 2.04; Q 1.38; K 2.4; C 2.34; S 1.89; E 1.68
chain 5 S1: M 1.5; I 2.49; A 3.05; E 2.1; D 1.29; K 1.23; Q 1.16; G 2.1; R 0.719; N 1.32; T 1.35; L 2.01; H 2.01; V 1.86; P 1.23; F 2.34; C 3.08
